Data reported in patent EP4592315A1.
pEC50: −log10 of the molar value.

Legend:
[1] = target: FcRs expressed by THP-1 cells; assay: flow cytometry on THP-1 cells (self-expressing FcRs), anti-human IgG-Fc PE
[2] = target: human FcγRIIb (human) (UniProt P31994); assay: flow cytometry on CHOS-hCD32b cells (overexpressing human FcγRIIb), anti-human IgG-Fc PE
Chain of human FcγRIIb (human) (P31994 43-310): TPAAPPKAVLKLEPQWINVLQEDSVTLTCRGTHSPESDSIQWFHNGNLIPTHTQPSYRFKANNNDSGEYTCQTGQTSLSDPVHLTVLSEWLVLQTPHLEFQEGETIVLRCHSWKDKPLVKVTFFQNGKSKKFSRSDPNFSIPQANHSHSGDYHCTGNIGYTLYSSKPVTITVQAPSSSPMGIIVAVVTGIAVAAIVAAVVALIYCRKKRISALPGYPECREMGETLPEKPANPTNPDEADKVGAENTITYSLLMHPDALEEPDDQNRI

pEC50 [1]	pEC50 [2]	Substance
9.15	8.87	Pertuzumab (antibody)
9.14		Trastuzumab (antibody)
9.34		Urelumab (antibody)
